Laboratory results: paper PMC3286128 (Biochemistry, 2012)

Target: purified monomeric human β-actin (G-actin) (human, UniProt P60709 1-375)
Experiment: pull-down

B1: sv1_(360–420ARM) peptide (peptide)
peptide: not shown
modifications: amino-terminal biotin
B1: binds.
